The test addresses Haemagglutinin (HA) of influenza A/Delaware/55/2019 (H1N1), from Flucelvax monovalent drug substance (Monobulk) (influenza A virus A/Delaware/55/2019 (H1N1)). As to the kind of experiment: SEC. On the technique in general: In gel filtration, larger molecules generally elute earlier.

As a reminder, the stoichiometry N is the number of molecules, sites or subunits per partner or assembly. Consider “Haemagglutinin (HA) of influenza A/Delaware/55/2019 (H1N1), from Flucelvax monovalent drug substance (Monobulk) (natural protein)”, for which the stoichiometry N stood at 3.

The record behind these values is publication PMC10073703.
